Test results from patent US6495376 (dated 2002).
Read-outs that look alike come from different tables or passages of the source. Where no end group is shown, it is not given here. [ ]: non-standard residue; d: D form. fluorescein = N-terminal fluorescein label; pT = C[C@@H](OP(=O)(O)O)[C@H](N)C(=O)O; pS = N[C@@H](COP(=O)(O)O)C(=O)O

Columns and labels:
GST-WW-domain of Pin1 = molecular target: T1, GST-WW-domain of Pin1 (human, UniProt Q13526 1-54); assay: fluorescence anisotropy
T1 construct: range 1-54; also called GST-Pin1 WW-domain; Pin1 WW-domain; not shown: glutathione S-transferase (GST), N-terminal fusion partner

GST [1] = molecular target: T2, GST (UniProt P08515 1-218 = GST); assay: fluorescence anisotropy
T2 construct: Control protein; also called control GST

Pin1^Y23A = molecular target: T3, Pin1^Y23A (human, UniProt Q13526 1-163); assay: ELISA
T3 construct: mature; also called Pin1^Y23A mutant

GST [2] = molecular target: T2, GST; assay: fluorescence anisotropy; remark: listed apart in the source

Binder | binding result (GST [1]) | binding result (GST [2]) | further results
fluorescein-EQPL[pT]PVTDL (also called Cdc25C peptide) [Cdc25 Peptide EQPLpTPVTDL] | no binding |  | 
KVAVVR[pT]PPKSPS (also called pT231 tau peptide (row of Pin1^Y23A)) [tau peptide KVAVVRTPPKSPS (pT-231), SEQ ID NO: 30] |  |  | binding result (Pin1^Y23A): no binding
fluorescein-WFY[pS]PFLE (also called phosphopeptide) [Pintide analogue WFYpSPFLE] |  | no binding | 

Further lines, with some results ahead:

binding result (GST [1]) | binding result (GST [2]) | Binder | further results
no binding |  | fluorescein-IPGTPPPNYD [Pro-Rich peptide IPGTPPPNYD] | binding result (GST-WW-domain of Pin1): no binding
no binding |  | fluorescein-EQPLTPVTDL [Cdc25 Peptide EQPLTPVTDL (nonphosphorylated)] | 
 | no binding | fluorescein-WFYSPFLE (also called nonphosphorylated peptide) [WFYSPFLE, nonphosphorylated control peptide] | 
